B1: Example 280 (antibody, human IgG1, kappa, V domains shown)
VH: QVELVESGGGLVQPGGSLRLSCAASGFTFSSYGMSWVRQAPGKGLEWVSGISSLGSTTYYADSVKGRFTISRDNSKNTLYLQMNSLRAEDTAVYYCARTGSPGTFMHGDHWGQGTLVTVSS
VL: DIQMTQSPSSLSASVGDRVTITCRASQDINNYLSWYQQKPGKAPKLLIYGASNLQSGVPSRFSGSGSGTDFTLTISSLQPEDFAVYYCQQYYGRPTTFGQGTKVEIKR
modifications: linker-toxophore on cysteine S
B2: Example 313 (antibody, human IgG1, kappa, V domains shown)
VH: QVELVESGGGLVQPGGSLRLSCAASGFTFSSYGMSWVRQAPGKGLEWVSGISSLGSTTYYADSVKGRFTISRDNSKNTLYLQMNSLRAEDTAVYYCARTGSPGTFMHGDHWGQGTLVTVSS
VL: DIQMTQSPSSLSASVGDRVTITCRASQDINNYLSWYQQKPGKAPKLLIYGASNLQSGVPSRFSGSGSGTDFTLTISSLQPEDFAVYYCQQYYGRPTTFGQGTKVEIKR
modifications: linker-toxophore on cysteine S
B3: Example 314 (antibody, human IgG1, kappa, V domains shown)
VH: QVELVESGGGLVQPGGSLRLSCAASGFTFSSYGMSWVRQAPGKGLEWVSGISSLGSTTYYADSVKGRFTISRDNSKNTLYLQMNSLRAEDTAVYYCARTGSPGTFMHGDHWGQGTLVTVSS
VL: DIQMTQSPSSLSASVGDRVTITCRASQDINNYLSWYQQKPGKAPKLLIYGASNLQSGVPSRFSGSGSGTDFTLTISSLQPEDFAVYYCQQYYGRPTTFGQGTKVEIKR
modifications: linker-toxophore on lysine NH
B4: Example 315 (antibody, human IgG1, kappa, V domains shown)
VH: QVELVESGGGLVQPGGSLRLSCAASGFTFSSYGMSWVRQAPGKGLEWVSGISSLGSTTYYADSVKGRFTISRDNSKNTLYLQMNSLRAEDTAVYYCARTGSPGTFMHGDHWGQGTLVTVSS
VL: DIQMTQSPSSLSASVGDRVTITCRASQDINNYLSWYQQKPGKAPKLLIYGASNLQSGVPSRFSGSGSGTDFTLTISSLQPEDFAVYYCQQYYGRPTTFGQGTKVEIKR
modifications: linker-toxophore on cysteine S
B5: Example 320 (antibody, human IgG1, kappa, V domains shown)
VH: QVELVESGGGLVQPGGSLRLSCAASGFTFSSYGMSWVRQAPGKGLEWVSGISSLGSTTYYADSVKGRFTISRDNSKNTLYLQMNSLRAEDTAVYYCARTGSPGTFMHGDHWGQGTLVTVSS
VL: DIQMTQSPSSLSASVGDRVTITCRASQDINNYLSWYQQKPGKAPKLLIYGASNLQSGVPSRFSGSGSGTDFTLTISSLQPEDFAVYYCQQYYGRPTTFGQGTKVEIKR
modifications: linker-toxophore on cysteine S
B6: Example 321 (antibody, human IgG1, kappa, V domains shown)
VH: QVELVESGGGLVQPGGSLRLSCAASGFTFSSYGMSWVRQAPGKGLEWVSGISSLGSTTYYADSVKGRFTISRDNSKNTLYLQMNSLRAEDTAVYYCARTGSPGTFMHGDHWGQGTLVTVSS
VL: DIQMTQSPSSLSASVGDRVTITCRASQDINNYLSWYQQKPGKAPKLLIYGASNLQSGVPSRFSGSGSGTDFTLTISSLQPEDFAVYYCQQYYGRPTTFGQGTKVEIKR
modifications: linker-toxophore on cysteine S
B7: Example 322 (antibody, human IgG1, kappa, V domains shown)
VH: QVELVESGGGLVQPGGSLRLSCAASGFTFSSYGMSWVRQAPGKGLEWVSGISSLGSTTYYADSVKGRFTISRDNSKNTLYLQMNSLRAEDTAVYYCARTGSPGTFMHGDHWGQGTLVTVSS
VL: DIQMTQSPSSLSASVGDRVTITCRASQDINNYLSWYQQKPGKAPKLLIYGASNLQSGVPSRFSGSGSGTDFTLTISSLQPEDFAVYYCQQYYGRPTTFGQGTKVEIKR
modifications: linker-toxophore on lysine NH
B8: Example 323 (antibody, human IgG1, kappa, V domains shown)
VH: QVELVESGGGLVQPGGSLRLSCAASGFTFSSYGMSWVRQAPGKGLEWVSGISSLGSTTYYADSVKGRFTISRDNSKNTLYLQMNSLRAEDTAVYYCARTGSPGTFMHGDHWGQGTLVTVSS
VL: DIQMTQSPSSLSASVGDRVTITCRASQDINNYLSWYQQKPGKAPKLLIYGASNLQSGVPSRFSGSGSGTDFTLTISSLQPEDFAVYYCQQYYGRPTTFGQGTKVEIKR
modifications: linker-toxophore on lysine NH
B9: Example 324 (antibody, human IgG1, kappa, V domains shown)
VH: QVELVESGGGLVQPGGSLRLSCAASGFTFSSYGMSWVRQAPGKGLEWVSGISSLGSTTYYADSVKGRFTISRDNSKNTLYLQMNSLRAEDTAVYYCARTGSPGTFMHGDHWGQGTLVTVSS
VL: DIQMTQSPSSLSASVGDRVTITCRASQDINNYLSWYQQKPGKAPKLLIYGASNLQSGVPSRFSGSGSGTDFTLTISSLQPEDFAVYYCQQYYGRPTTFGQGTKVEIKR
modifications: linker-toxophore on cysteine S
B10: Example 325 (antibody, human IgG1, kappa, V domains shown)
VH: QVELVESGGGLVQPGGSLRLSCAASGFTFSSYGMSWVRQAPGKGLEWVSGISSLGSTTYYADSVKGRFTISRDNSKNTLYLQMNSLRAEDTAVYYCARTGSPGTFMHGDHWGQGTLVTVSS
VL: DIQMTQSPSSLSASVGDRVTITCRASQDINNYLSWYQQKPGKAPKLLIYGASNLQSGVPSRFSGSGSGTDFTLTISSLQPEDFAVYYCQQYYGRPTTFGQGTKVEIKR
modifications: linker-toxophore on cysteine S
B11: Example 326 (antibody, human IgG1, kappa, V domains shown)
VH: QVELVESGGGLVQPGGSLRLSCAASGFTFSSYGMSWVRQAPGKGLEWVSGISSLGSTTYYADSVKGRFTISRDNSKNTLYLQMNSLRAEDTAVYYCARTGSPGTFMHGDHWGQGTLVTVSS
VL: DIQMTQSPSSLSASVGDRVTITCRASQDINNYLSWYQQKPGKAPKLLIYGASNLQSGVPSRFSGSGSGTDFTLTISSLQPEDFAVYYCQQYYGRPTTFGQGTKVEIKR
modifications: linker-toxophore on lysine NH
B12: Example 327 (antibody, human IgG1, kappa, V domains shown)
VH: QVELVESGGGLVQPGGSLRLSCAASGFTFSSYGMSWVRQAPGKGLEWVSGISSLGSTTYYADSVKGRFTISRDNSKNTLYLQMNSLRAEDTAVYYCARTGSPGTFMHGDHWGQGTLVTVSS
VL: DIQMTQSPSSLSASVGDRVTITCRASQDINNYLSWYQQKPGKAPKLLIYGASNLQSGVPSRFSGSGSGTDFTLTISSLQPEDFAVYYCQQYYGRPTTFGQGTKVEIKR
modifications: linker-toxophore on cysteine S
B13: Example 159, conjugate of anti-mesothelin antibody MF-Ta (antibody, human IgG1, lambda, V domains shown)
VH: QVELVQSGAEVKKPGESLKISCKGSGYSFTSYWIGWVRQAPGKGLEWMGIIDPGDSRTRYSPSFQGQVTISADKSISTAYLQWSSLKASDTAMYYCARGQLYGGTYMDGWGQGTLVTVSS
VL: DIALTQPASVSGSPGQSITISCTGTSSDIGGYNSVSWYQQHPGKAPKLMIYGVNNRPSGVSNRFSGSKSGNTASLTISGLQAEDEADYYCSSYDIESATPVFGGGTKLTVLG
modifications: toxophore-linker, coupling residue not stated
B14: Example 366, conjugate of anti-mesothelin antibody MF-Ta (antibody, human IgG1, lambda, V domains shown)
VH: QVELVQSGAEVKKPGESLKISCKGSGYSFTSYWIGWVRQAPGKGLEWMGIIDPGDSRTRYSPSFQGQVTISADKSISTAYLQWSSLKASDTAMYYCARGQLYGGTYMDGWGQGTLVTVSS
VL: DIALTQPASVSGSPGQSITISCTGTSSDIGGYNSVSWYQQHPGKAPKLMIYGVNNRPSGVSNRFSGSKSGNTASLTISGLQAEDEADYYCSSYDIESATPVFGGGTKLTVLG
modifications: toxophore-linker on Cys sulfur, sites not given
B15: Example 367, conjugate of anti-mesothelin antibody MF-Ta (antibody, human IgG1, lambda, V domains shown)
VH: QVELVQSGAEVKKPGESLKISCKGSGYSFTSYWIGWVRQAPGKGLEWMGIIDPGDSRTRYSPSFQGQVTISADKSISTAYLQWSSLKASDTAMYYCARGQLYGGTYMDGWGQGTLVTVSS
VL: DIALTQPASVSGSPGQSITISCTGTSSDIGGYNSVSWYQQHPGKAPKLMIYGVNNRPSGVSNRFSGSKSGNTASLTISGLQAEDEADYYCSSYDIESATPVFGGGTKLTVLG
modifications: toxophore-linker on Lys NH, sites not given
B16: Example 368, conjugate of anti-mesothelin antibody MF-Ta (antibody, human IgG1, lambda, V domains shown)
VH: QVELVQSGAEVKKPGESLKISCKGSGYSFTSYWIGWVRQAPGKGLEWMGIIDPGDSRTRYSPSFQGQVTISADKSISTAYLQWSSLKASDTAMYYCARGQLYGGTYMDGWGQGTLVTVSS
VL: DIALTQPASVSGSPGQSITISCTGTSSDIGGYNSVSWYQQHPGKAPKLMIYGVNNRPSGVSNRFSGSKSGNTASLTISGLQAEDEADYYCSSYDIESATPVFGGGTKLTVLG
modifications: toxophore-linker on Lys NH, sites not given
B17: Example 369, conjugate of anti-mesothelin antibody MF-Ta (antibody, human IgG1, lambda, V domains shown)
VH: QVELVQSGAEVKKPGESLKISCKGSGYSFTSYWIGWVRQAPGKGLEWMGIIDPGDSRTRYSPSFQGQVTISADKSISTAYLQWSSLKASDTAMYYCARGQLYGGTYMDGWGQGTLVTVSS
VL: DIALTQPASVSGSPGQSITISCTGTSSDIGGYNSVSWYQQHPGKAPKLMIYGVNNRPSGVSNRFSGSKSGNTASLTISGLQAEDEADYYCSSYDIESATPVFGGGTKLTVLG
modifications: toxophore-linker on Lys NH, sites not given
B18: Example 377, conjugate of anti-mesothelin antibody MF-Ta (antibody, human IgG1, lambda, V domains shown)
VH: QVELVQSGAEVKKPGESLKISCKGSGYSFTSYWIGWVRQAPGKGLEWMGIIDPGDSRTRYSPSFQGQVTISADKSISTAYLQWSSLKASDTAMYYCARGQLYGGTYMDGWGQGTLVTVSS
VL: DIALTQPASVSGSPGQSITISCTGTSSDIGGYNSVSWYQQHPGKAPKLMIYGVNNRPSGVSNRFSGSKSGNTASLTISGLQAEDEADYYCSSYDIESATPVFGGGTKLTVLG
modifications: toxophore-linker on Cys sulfur, sites not given
B19: Example 378, conjugate of anti-mesothelin antibody MF-Ta (antibody, human IgG1, lambda, V domains shown)
VH: QVELVQSGAEVKKPGESLKISCKGSGYSFTSYWIGWVRQAPGKGLEWMGIIDPGDSRTRYSPSFQGQVTISADKSISTAYLQWSSLKASDTAMYYCARGQLYGGTYMDGWGQGTLVTVSS
VL: DIALTQPASVSGSPGQSITISCTGTSSDIGGYNSVSWYQQHPGKAPKLMIYGVNNRPSGVSNRFSGSKSGNTASLTISGLQAEDEADYYCSSYDIESATPVFGGGTKLTVLG
modifications: toxophore-linker on Lys NH, sites not given
B20: Example 379 (Diastereomer 1), conjugate of anti-mesothelin antibody MF-Ta (antibody, human IgG1, lambda, V domains shown)
VH: QVELVQSGAEVKKPGESLKISCKGSGYSFTSYWIGWVRQAPGKGLEWMGIIDPGDSRTRYSPSFQGQVTISADKSISTAYLQWSSLKASDTAMYYCARGQLYGGTYMDGWGQGTLVTVSS
VL: DIALTQPASVSGSPGQSITISCTGTSSDIGGYNSVSWYQQHPGKAPKLMIYGVNNRPSGVSNRFSGSKSGNTASLTISGLQAEDEADYYCSSYDIESATPVFGGGTKLTVLG
modifications: toxophore-linker on Lys NH, sites not given
B21: Example 380 (Diastereomer 2), conjugate of anti-mesothelin antibody MF-Ta (antibody, human IgG1, lambda, V domains shown)
VH: QVELVQSGAEVKKPGESLKISCKGSGYSFTSYWIGWVRQAPGKGLEWMGIIDPGDSRTRYSPSFQGQVTISADKSISTAYLQWSSLKASDTAMYYCARGQLYGGTYMDGWGQGTLVTVSS
VL: DIALTQPASVSGSPGQSITISCTGTSSDIGGYNSVSWYQQHPGKAPKLMIYGVNNRPSGVSNRFSGSKSGNTASLTISGLQAEDEADYYCSSYDIESATPVFGGGTKLTVLG
modifications: toxophore-linker on Lys NH, sites not given

Target: T1, Carboanhydrase IX (Homo sapiens, UniProt Q16790 38-459)
Assay: cell-based or functional assay

Binder | EC50 (nM) HT29 [nM]
B1 | 2.9

Target: T1, Carboanhydrase IX
Assay: cell-based or functional assay
Remark: another data set of the same source

Binder | MIAPaCa 2/CA9+ IC50 [nM]
B1 | 0.4
B2 | 3.8
B3 | 150
B4 | 3.2
B5 | 19
B6 | 220
B7 | 172
B8 | 238
B9 | 11
B10 | 137
B11 | 2
B12 | 19

Target: Mesothelin (SwissProt reference Q13421-3) (Homo sapiens, UniProt Q13421 37-622)
Assay: cell-based or functional assay

Binder | IC50 (nM), HT29 meso+ cells, MTT proliferation assay [nM]
B13 | 177
B14 | 1.3
B15 | 0.06
B16 | 3.1
B17 | 0.02
B18 | 1.6
B19 | 0.04
B20 | 7
B21 | 15

— US20150246136A1 (Bayer, published 2015)
